“Also recorded” adds a separate entry of the source. Where no end group is shown, it is not given here.
Experiments:
Streptavidin [1] = target: T1, Streptavidin (Streptomyces avidinii, UniProt P22629); experiment: Recombinant peptide chip screen with HRP- or Europium-labeled Streptavidin; format: binding; conditions: for effect of dimerisation on chip signal/affinity: 12 glycine linker spaced dimer versus monomer, HRP-Streptavidin signal
T1 construct: purchased ForteBio
Description: Competent E. coli One Shot® BL21 Star™ (DE3) cells (Thermo Fisher Scientific) carrying the gene for T7 RNA polymerase under control of isopropyl β-D-1-thiogalactopyranoside (IPTG)-inducible lacUV5 promotor were transformed with respective expression libraries, and plated onto large square Q-trays. Individual colonies were robotically picked (QPix2^xt, Genetix) into suitable 384 well plates containing liquid LB medium supplemented with 100 μg/ml ampicillin, and cultivated overnight at 37 °C. Alternative route was to directly split appropriately diluted (as confirmed by plating onto LB-amp agar plates) transformation reactions (after 1 h recovery in antibiotics-free SOC medium) into 384 well plates via a programmable Flexdrop Precision Reagent Dispenser (Perkin Elmer). The next day, clones were robotically arrayed onto a 0.45 μm pore size PROTRAN™ nitrocellulose sheet (Whatman) cut in the form of the original masterplate, applying a 1 × 1, 5 × 1, 5 × 5, or 10 × 10 pattern (such that each clone or pool is gridded in 1, 5 or 25 or 100 replicates each). Following a 6 to 8 h incubation interval on top of solid LB at 30 °C, peptide expression was achieved by transferring these membrane-imprinted clones onto LB agar plates supplemented with 1 mM IPTG, followed by a 2 h incubation interval at 37 °C. Cells were then directly lysed via transfer into a Tris-buffered saline (TBS) solution containing 0.05% Tween-20 and 3% blotting-grade milk powder. Membranes were in refined dot-blot reminiscent procedure challenged with (horseradish peroxidase) HRP- or Europium labeled Streptavidin (in 1:1000 to 1:5000 dilution in TBS-0.05% Tween) for 1 h at RT, washed 3 times in TBS-0.05% Tween, and scanned with either a ChemiDoc imaging system (Quantity One® analysis software, BioRad) after exposure to Immobilon™ Western chemiluminescent substrate (Millipore, Merck), or directly with a prototypic SpectraMax® Paradigm® multi-mode detection Platform (ScanLater™ Western Blot Detection Cartridge, Molecular Devices).
Screening parameters were first of all optimized: signal-to-background ratios and realizable detection limits were assessed by analyzing the associations between published Strep-tagI and II peptides (as well as 12G linker spaced dimer derived thereof) and either commercially available HRP- or fluorescence labeled Streptavidin. […] We next further optimized E. coli growth times (from 0 to 24 h at 2 different temperatures), induction intervals, critical cell densities required, printing conditions, lysis and detection conditions, etc. (Fig. 2).

Streptavidin [2] = target: T1, Streptavidin; design: method as in 4 sources, one per row (each row's own in cited_ref): ref see discussion section ([26], [33], [34]) ||| ref [35], [36] = [35]; PMID 26406477; doi:10.1371/journal.pone.0139137; 35. Fogen D Engineering Streptavidin and a Streptavidin-Binding Peptide with Infinite Binding Affinity and Reversible Binding Capability: Purification of a Tagged Recombinant Protein to High Purity vi || [36]; PMID 11722181; doi:10.1006/prep.2001.1515; 36. Keefe AD One-step purification of recombinant proteins using a nanomolar-affinity streptavidin-binding peptide, the SBP-Tag Protein Expr Purif 2001 23 3 440 446 10.1006/prep.2001.1515 11722181 ||| ref [37] = [37]; PMID 14680960; doi:10.1016/j.pep.2003.08.014; 37. Lamla T Erdmann VA The Nano-tag, a streptavidin-binding peptide for the purification and detection of recombinant proteins Protein Expr Purif 2004 33 1 39 47 10.1016/j.pep.2003.08.014 14680960 ||| ref [26], [33], [34] = [26]; PMID 8636976; doi:10.1006/jmbi.1996.0061; 26. Schmidt TG Molecular interaction between the Strep-tag affinity peptide and its cognate target, streptavidin J Mol Biol 1996 255 5 753 766 10.1006/jmbi.1996.0061 8636976 || [33]; PMID 10796988; doi:10.1016/S1050-3862(99)00033-9; 33. Skerra A Schmidt TG Applications of a peptide ligand for streptavidin: the Strep-tag Biomol Eng 1999 16 1–4 79 86 10.1016/S1050-3862(99)00033-9 10796988 || [34]; PMID 11910031; doi:10.1110/ps.4150102; 34. Korndorfer IP Skerra A Improved affinity of engineered streptavidin for the Strep-tag II peptide is due to a fixed open conformation of the lid-like loop at the binding site Protein Sci 2002 11 4; conditions: equilibrium dissociation constant; ref [35], [36]; read-out: literature KD of SBP-tag, Streptavidin; cited from earlier work

T1 sequence (P22629 25-183): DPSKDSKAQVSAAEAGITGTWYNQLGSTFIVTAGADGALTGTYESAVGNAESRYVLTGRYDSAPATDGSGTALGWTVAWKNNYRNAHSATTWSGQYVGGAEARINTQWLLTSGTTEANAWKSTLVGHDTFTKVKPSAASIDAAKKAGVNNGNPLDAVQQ

| Substance | effect of dimerisation on chip signal/affinity (Streptavidin [1]) | binder strength on test peptide chip (Streptavidin [1]; in comparison to negative control, HRP- or fluorescence-labeled Streptavidin) | Kd (Streptavidin [2]) [nM] |
| --- | --- | --- | --- |
| B5 dimer: B5 dimerized, spaced by an analogous 12 glycine linker (VSHPQAPFGGGGGGGGGGGGVSHPQAPF; not fully specified) | could not increase affinity by linear dimerization | – | – |
| Dim12G: 12 glycine (G) linker spaced dimer resembling a published Twin-conformation; fusion of Strep-tagI and Strep-tagII monomers [reference compound] | performs superior in comparison to a single monomer | higher affinity | – |
| F14.5 dimer: 12G–spaced dimeric F14.5 (CSGSYGSCGGGGGGGGGGGGCSGSYGSC; cysteine pairing not given here; also: fused to GST, end not given here) | remained fairly constant; also recorded: could not increase affinity by linear dimerization | – | – |
| SBP-tag: 38 AA encompassing SBP-tag | – | – | 2.5 |

— PMC5463365, “Assembly and use of high-density recombinant peptide chips for large-scale ligand screening is a practical alternative to synthetic peptide libraries” (BMC Genomics, 2017)
